This passage reports Tm results from FireProtDB (doi:10.1110/ps.062645007).

Where “and” joins values, the source holds several entries; their conditions need not be identical. Equal values may be shown once.

For the data set the following is noted: Salmonella typhimurium (strain LT2 / SGSC1412 / ATCC 700720); pH 7.4; Thermal; CD; Phosphate 10 mM; transition: 3; whole UniProt chain shown.

B1: Cell invasion protein SipD wild type, Q56026 (protein)
chain: MLNIQNYSASPHPGIVAERPQTPSASEHVETAVVPSTTEHRGTDIISLSQAATKIHQAQQTLQSTPPISEENNDERTLARQQLTSSLNALAKSGVSLSAEQNENLRSAFSAPTSALFSASPMAQPRTTISDAEIWDMVSQNISAIGDSYLGVYENVVAVYTDFYQAFSDILSKMGGWLLPGKDGNTVKLDVTSLKNDLNSLVNKYNQINSNTVLFPAQSGSGVKVATEAEARQWLSELNLPNSCLKSYGSGYVVTVDLTPLQKMVQDIDGLGAPGKDSKLEMDNAKYQAWQSGFKAQEENMKTTLQTLTQKYSNANSLYDNLVKVLSSTISSSLETAKSFLQG
A word on the Tm: it is the temperature at the midpoint of the melting transition. With B1, the Tm is 75.7 °C and 76.6 °C.
